Paper PMC9177958, “Structures of nonsense-mediated mRNA decay factors UPF3B and UPF3A in complex with UPF2 reveal molecular basis for competitive binding and for neurodevelopmental disorder-causing mutation” (Nucleic Acids Research, 2022)

B2: UPF3B-WT (residues 1–470) (natural protein, human, UniProt Q9BZI7-2 1-470, looked up)
chain: MKEEKEHRPKEKRVTLLTPAGATGSGGGTSGDSSKGEDKQDRNKEKKEALSKVVIRRLPPTLTKEQLQEHLQPMPEHDYFEFFSNDTSLYPHMYARAYINFKNQEDIILFRDRFDGYVFLDNKGQEYPAIVEFAPFQKAAKKKTKKRDTKVGTIDDDPEYRKFLESYATDNEKMTSTPETLLEEIEAKNRELIAKKTTPLLSFLKNKQRMREEKREERRRREIERKRQREEERRKWKEEEKRKRKDIEKLKKIDRIPERDKLKDEPKIKLLKKPEKGDEKELDKREKAKKLDKENLSDERASGQSCTLPKRSDSELKDEKPKRPEDESGRDYREREREYERDQERILRERERLKRQEEERRRQKERYEKEKTFKRKEEEMKKEKDTLRDKGKKAESTESIGSSEKTEKKEEVVKRDRIRNKDRPAMQLYQPGARSRNRLCPPDDSTKSGDSAAERKQESGISHRKEGGEE
notes: UPF3B, human, isoform 2 (the predominant form found in cells), residues 1-470, printed length 470; also called full-length UPF3B; source: insect cells (MultiBac), purified (Ni-NTA, TEV, reverse IMAC, ion exchange)

What was measured:
UPF3B-WT = molecular target: T1, UPF3B-WT (human, UniProt Q9BZI7-2 1-470); experiment: fluorescence anisotropy; FA: 5 nM probe, 150 mM NaCl, 25 mM HEPES pH 7.45, 1 mM TCEP, 20 C; EMSA: 250 nM probe, 25 mM HEPES pH 7.45, 2 mM MgCl2, 150 mM NaCl, 0.5 mM TCEP, on ice; conditions: protein: recombinant, tags: 6xHis removed by TEV
T1 sequence: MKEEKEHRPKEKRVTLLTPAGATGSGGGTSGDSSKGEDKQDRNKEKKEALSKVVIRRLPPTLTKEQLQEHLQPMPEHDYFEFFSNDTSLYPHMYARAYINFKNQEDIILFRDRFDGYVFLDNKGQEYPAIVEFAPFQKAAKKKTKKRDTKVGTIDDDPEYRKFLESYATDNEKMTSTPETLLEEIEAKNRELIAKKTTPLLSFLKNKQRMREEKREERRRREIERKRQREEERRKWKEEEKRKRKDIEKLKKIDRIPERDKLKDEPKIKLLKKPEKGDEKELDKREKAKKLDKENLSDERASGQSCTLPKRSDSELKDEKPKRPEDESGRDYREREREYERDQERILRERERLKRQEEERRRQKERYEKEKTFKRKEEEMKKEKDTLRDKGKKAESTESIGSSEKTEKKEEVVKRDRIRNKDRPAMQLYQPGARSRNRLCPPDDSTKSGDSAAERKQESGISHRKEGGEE

UPF2L (120–1227) = molecular target: T2, UPF2L (120–1227) (UniProt Q9HAU5 120-1227); experiment: native gel or EMSA; 250 nM HEX-labelled ssRNA with 2 μM UPF3B-WT or UPF2L and increasing ratios of the other; on ice 1 h; 25 mM HEPES pH 7.45, 2 mM MgCl2, 150 mM NaCl, 0.5 mM TCEP; 4–20% Tris-Glycine native gel, Coomassie; conditions: both partners purified
T2 construct: UPF2, larger construct with wildtype activity, amino acids 120-1227; source: E. coli BL21 Rosetta2(DE3), purified (Ni-NTA, TEV, reverse IMAC, ion exchange)
T2 sequence (looked up): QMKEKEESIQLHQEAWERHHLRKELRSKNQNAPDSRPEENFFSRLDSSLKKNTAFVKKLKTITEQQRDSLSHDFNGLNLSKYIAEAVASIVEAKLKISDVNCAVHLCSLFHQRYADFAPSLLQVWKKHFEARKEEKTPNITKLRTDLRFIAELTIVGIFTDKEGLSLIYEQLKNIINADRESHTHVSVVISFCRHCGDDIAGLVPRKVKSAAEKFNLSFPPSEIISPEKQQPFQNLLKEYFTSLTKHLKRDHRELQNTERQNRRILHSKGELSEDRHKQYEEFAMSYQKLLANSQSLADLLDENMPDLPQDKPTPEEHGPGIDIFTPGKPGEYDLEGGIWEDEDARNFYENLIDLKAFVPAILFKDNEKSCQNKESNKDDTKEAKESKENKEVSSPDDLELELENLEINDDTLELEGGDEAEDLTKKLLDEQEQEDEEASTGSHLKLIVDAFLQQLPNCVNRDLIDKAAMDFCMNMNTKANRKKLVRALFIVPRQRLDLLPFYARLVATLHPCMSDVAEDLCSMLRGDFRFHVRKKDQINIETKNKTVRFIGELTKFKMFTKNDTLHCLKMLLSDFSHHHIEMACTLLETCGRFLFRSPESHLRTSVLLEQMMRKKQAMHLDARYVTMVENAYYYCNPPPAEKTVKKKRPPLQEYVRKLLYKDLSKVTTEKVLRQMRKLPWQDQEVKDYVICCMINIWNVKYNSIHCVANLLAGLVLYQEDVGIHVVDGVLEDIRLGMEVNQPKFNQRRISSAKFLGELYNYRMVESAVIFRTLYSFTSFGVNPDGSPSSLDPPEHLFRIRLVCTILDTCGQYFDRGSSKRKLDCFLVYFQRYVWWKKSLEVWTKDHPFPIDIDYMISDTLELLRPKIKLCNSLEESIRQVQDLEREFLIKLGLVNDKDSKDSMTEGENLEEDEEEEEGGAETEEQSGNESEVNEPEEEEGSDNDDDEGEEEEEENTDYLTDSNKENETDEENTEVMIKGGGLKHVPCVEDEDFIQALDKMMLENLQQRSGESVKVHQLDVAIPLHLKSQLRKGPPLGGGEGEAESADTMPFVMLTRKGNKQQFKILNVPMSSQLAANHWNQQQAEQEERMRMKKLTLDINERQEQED

UPF3A-WT = molecular target: T3, UPF3A-WT (human, UniProt Q9H1J1 1-476); experiment: SPR; 350 RU biotinylated Avi-UPF2-MIF4GIII immobilised on an SA chip (Biacore T200); UPF3B and UPF3A constructs injected; 15°C; 300 mM NaCl, 25 mM HEPES pH 7.4, 0.25 mM TCEP, 0.05% Tween-20; global fit, 1:1 binding model; conditions: both partners purified
T3 construct: UPF3A, human, full length; The cloning of UPF3A-WT is not described in the methods; also called full-length UPF3A-WT; source: insect cells (MultiBac), purified (Ni-NTA, TEV, reverse IMAC, ion exchange)
T3 sequence (looked up): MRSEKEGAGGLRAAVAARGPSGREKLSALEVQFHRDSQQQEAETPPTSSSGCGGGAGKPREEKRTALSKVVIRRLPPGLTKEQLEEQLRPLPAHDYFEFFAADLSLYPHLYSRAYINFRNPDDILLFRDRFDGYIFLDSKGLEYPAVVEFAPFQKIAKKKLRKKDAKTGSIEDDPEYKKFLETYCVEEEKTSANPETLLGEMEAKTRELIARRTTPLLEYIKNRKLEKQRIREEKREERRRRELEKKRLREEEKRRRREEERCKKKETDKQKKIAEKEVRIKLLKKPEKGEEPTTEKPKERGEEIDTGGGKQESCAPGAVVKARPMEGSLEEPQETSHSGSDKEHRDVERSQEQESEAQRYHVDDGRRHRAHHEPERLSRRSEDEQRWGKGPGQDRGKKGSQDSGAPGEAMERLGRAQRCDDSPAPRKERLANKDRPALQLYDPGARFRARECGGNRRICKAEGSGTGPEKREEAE

[1] = molecular target: B2; experiment: as above; conditions: both partners purified

B1: 24mer dsDNA (dsDNA)
DNA 1: CCCTGAGCTGACGCAGCACCTGGG
DNA 2: CCCAGGTGCTGCGTCAGCTCAGGG
- Kd (UPF3B-WT; label: 5' HEX on strand 1, blunt): 61 nM

Binder: B2
- binding result (UPF2L (120–1227)): binds

B3: 24mer ssDNA (ssDNA)
DNA: CCCTGAGCTGACGCAGCACCTGGG
- Kd (UPF3B-WT; label: 5' HEX, single strand): 190 nM

B4: biotinylated Avi-UPF2-MIF4GIII (domain or fragment, UniProt Q9HAU5 761-1054, looked up)
chain: EKTVKKKRPPLQEYVRKLLYKDLSKVTTEKVLRQMRKLPWQDQEVKDYVICCMINIWNVKYNSIHCVANLLAGLVLYQEDVGIHVVDGVLEDIRLGMEVNQPKFNQRRISSAKFLGELYNYRMVESAVIFRTLYSFTSFGVNPDGSPSSLDPPEHLFRIRLVCTILDTCGQYFDRGSSKRKLDCFLVYFQRYVWWKKSLEVWTKDHPFPIDIDYMISDTLELLRPKIKLCNSLEESIRQVQDLEREFLIKLGLVNDKDSKDSMTEGENLEEDEEEEEGGAETEEQSGNESEVNE
modifications: biotin on the Avi tag (BirA)
notes: UPF2, third middle-domain of eukaryotic initiation factor 4G (MIF4GIII), residues 761-1054; Avi tag added by site-directed mutagenesis to UPF2-MIF4GIII; also called immobilized UPF2-MIF4GIII; source: E. coli BL21 Rosetta2(DE3), purified (Ni-NTA, TEV, reverse IMAC, ion exchange); biotinylated with BirA, SEC
- Kd (UPF3A-WT): 0.048 nM
- Kd [1]: 0.47 nM
